In publication PMC12289001, “Functional characterization of DPP4 and FcRn as receptor and coreceptor for classical human astroviruses in Caco-2 cells” (PLOS Pathogens, 2025):

Target: T1, recombinant FcRn (FCGRT ectodomain with β-2-Microglobulin), expressed in CHO-S cells (human, UniProt P55899 24-297; P61769 21-119)
T1 construct: signal peptide in the construct; ectodomain of human FCGRT (FcRn heavy chain), Met1-Ser297, followed by a C-terminal thrombin cleavage site before the tags; β-2-Microglobulin, Met1-Met119; also called neonatal Fc receptor; source: CHO-S cells, electroporated with both plasmids, purified from the media (StrepTrap XT)
Experiment: BLI; HIS1K biosensors loaded with HAstV-8 spike (6 μg/ml); FcRn in solution, 1,000 to 62.5 nM (mutant spike: 2,000 nM only); 0.1M sodium phosphate, 150 mM NaCl, 0.05% Tween-20, pH 7.0; 25 °C; 1:1 binding model; triplicate
Details: both partners purified

T1 sequence (P55899 24-297, chain 1 of 2): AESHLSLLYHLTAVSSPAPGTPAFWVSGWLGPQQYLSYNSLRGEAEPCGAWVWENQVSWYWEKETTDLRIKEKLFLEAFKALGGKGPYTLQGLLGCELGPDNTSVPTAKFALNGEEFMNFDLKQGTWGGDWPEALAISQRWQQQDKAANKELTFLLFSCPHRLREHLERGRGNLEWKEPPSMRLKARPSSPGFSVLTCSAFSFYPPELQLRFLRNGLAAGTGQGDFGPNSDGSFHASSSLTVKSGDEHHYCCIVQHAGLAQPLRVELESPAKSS
T1 sequence (P61769 21-119, chain 2 of 2): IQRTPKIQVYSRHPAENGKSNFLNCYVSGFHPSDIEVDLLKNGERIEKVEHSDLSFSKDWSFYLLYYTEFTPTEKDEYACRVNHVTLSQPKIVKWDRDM

B1: recombinant WT HAstV-8 capsid spike (domain or fragment)
chain: GEQFRVLLTVGPPMAPNTANSQNWVNKTIVPPENQYTVKIGIDLEHYTTMQGFTPVESVSWYTADFQPSDEPSPIPGLYARVNNTKKADVYGVQQFKSSHTNNRHQITSVFLVRVTTSFQVINYTSYFIRGAESGSNVSNLKIRDQTYHTPLQFTQGKWYLLTSTVMHDGPTSSGWVWMNQELTNNIAYRVDPGMMYLITPPPAASQLYFELHTVLPQA
modifications: Wild-type spike. Limits are not printed: about 429-647 is taken by convention from related HAstV spike constructs and is close to the VP25 feature 424-648. The C-terminal thrombin site and His10 tag …
  Kd: ~280 nM
